Test results taken from patent EP1759709B1 (Elan Pharmaceuticals Inc., dated 2013).

Biological target: T1, human α4β1 integrin (human, UniProt P13612 34-1032; P05556 21-798)
T1 construct: whole, on cells; also called VLA-4; alpha-4-beta-1 integrin
Assay: ELISA on L cells expressing α4β1 integrin; crude supernatants

binding result	Binder
binds	reshaped human 21.6 antibody (La + Ha) (antibody, V domains shown, Expressed in Cos cells) VH: QVQLVQSGAEVKKPGASVKVSCKASGFNIKDTYIHWVRQAPGQRLEWMGRIDPANGYTKYDPKFQGRVTITADTSASTAYMELSSLRSEDTAVYYCAREGYYGNYGVYAMDYWGQGTLVTVSS VL: DIQMTQSPSSLSASVGDRVTITCKTSQDINKYMAWYQQTPGKAPRLLIHYTSALQPGIPSRFSGSGSGRDYTFTISSLQPEDIATYYCLQYDNLWTFGQGTKVEIK
binds	reshaped human 21.6 antibody (Lb + Ha) (antibody, V domains shown, Human kappa / human gamma-1 constant regions; tested as crude Cos supernatant; Lb is therefore built here from La with the stated change; also called version Lb in combination with version Ha) VH: QVQLVQSGAEVKKPGASVKVSCKASGFNIKDTYIHWVRQAPGQRLEWMGRIDPANGYTKYDPKFQGRVTITADTSASTAYMELSSLRSEDTAVYYCAREGYYGNYGVYAMDYWGQGTLVTVSS VL: DIQMTQSPSSLSASVGDRVTITCKTSQDINKYMAWYQQTPGKAPRLLIYYTSALQPGIPSRFSGSGSGRDYTFTISSLQPEDIATYYCLQYDNLWTFGQGTKVEIK
